Measured values as given in publication PMC11861601, “Multitarget mechanism of MYC inhibition by the bacterial lon protease in disease” (Scientific Reports, 2025).

B1: Lon N-terminal domain peptide (aa 1-245) (domain or fragment, E. coli, UniProt P0A9M0 1-245, looked up)
chain: MNPERSERIEIPVLPLRDVVVYPHMVIPLFVGREKSIRCLEAAMDHDKKIMLVAQKEASTDEPGVNDLFTVGTVASILQMLKLPDGTVKVLVEGLQRARISALSDNGEHFSAKAEYLESPTIDEREQEVLVRTAISQFEGYIKLNKKIPPEVLTSLNSIDDPARLADTIAAHMPLKLADKQSVLEMSDVNERLEYLMAMMESEIDLLQVEKRIRNRVKKQMEKSQREYYLNEQMKAIQKELGEMD
notes: Lon protease, E. coli, UniProt P0A9M0, N-terminal domain, aa 1-245; also called NTD; NTD peptide; source: E. coli BL21 (DE3), purified (Strep-Tactin Sepharose)
B2: His-tagged full-length N-MYC (natural protein, human, UniProt P04198 1-464, looked up)
chain: MPSCSTSTMPGMICKNPDLEFDSLQPCFYPDEDDFYFGGPDSTPPGEDIWKKFELLPTPPLSPSRGFAEHSSEPPSWVTEMLLENELWGSPAEEDAFGLGGLGGLTPNPVILQDCMWSGFSAREKLERAVSEKLQHGRGPPTAGSTAQSPGAGAASPAGRGHGGAAGAGRAGAALPAELAHPAAECVDPAVVFPFPVNKREPAPVPAAPASAPAAGPAVASGAGIAAPAGAPGVAPPRPGGRQTSGGDHKALSTSGEDTLSDSDDEDDEEEDEEEEIDVVTVEKRRSSSNTKAVTTFTITVRPKNAALGPGRAQSSELILKRCLPIHQQHNYAAPSPYVESEDAPPQKKIKSEASPRPLKSVIPPKAKSLSPRNSDSEDSERRRNHNILERQRRNDLRSSFLTLRDHVPELVKNEKAAKVVILKKATEYVHSLQAEEHQLLLEKEKLQARQQQLLKKIEHARTC
notes: N-MYC, human, full length; source: bought: Signalway (SAB Signalway Antibody), Cat# AP72694

Legend:
Assay in all cases: SPR; Biacore X100; His-tagged ligand (~0.2 µM) captured on Ni-charged Sensor Chip NTA; Lon protein or domain injected at five dilutions; 25 °C, 30 µL/min; running buffer as printed 0.1 M HEPES, 1.5 M NaCl, 0.03 M EDTA, 0.5% v/v Surfactant P20; reference cell without nickel; 1:1 Langmuir fit
Conditions in all cases: both partners purified
[1] = biological target: T1, His-tagged full-length c-MYC (human, UniProt P01106-1 1-439)
T1 construct: c-MYC, human, full length; see the vendor's catalogue entry; source: bought: Cusabio, CSB-EP015270HU
T1 sequence (P01106 16-454): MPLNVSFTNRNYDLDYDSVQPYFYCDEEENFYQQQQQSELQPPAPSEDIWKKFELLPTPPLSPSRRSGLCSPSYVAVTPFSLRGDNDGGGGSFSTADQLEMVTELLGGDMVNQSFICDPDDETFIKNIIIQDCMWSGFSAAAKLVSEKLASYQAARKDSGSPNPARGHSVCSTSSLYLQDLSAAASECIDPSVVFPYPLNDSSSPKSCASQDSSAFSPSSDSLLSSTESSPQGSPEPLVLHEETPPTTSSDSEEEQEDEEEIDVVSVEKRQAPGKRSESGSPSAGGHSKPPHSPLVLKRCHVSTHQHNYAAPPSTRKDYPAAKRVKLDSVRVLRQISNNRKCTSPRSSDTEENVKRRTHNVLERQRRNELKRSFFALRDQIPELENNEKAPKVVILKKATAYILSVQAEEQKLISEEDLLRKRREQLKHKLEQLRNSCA

[2] = biological target: B2
[3] = biological target: T2, recombinant Escherichia coli Lon protease (aa 1-778) (E. coli, UniProt P0A9M0 1-778)
T2 construct: Lon protease, E. coli, UniProt P0A9M0, aa 1-778 as printed; Gene synthesised (GenScript) and cloned in a pASK-63 A+ vector (IBA); also called rLon; full-length Lon; source: E. coli BL21 (DE3), purified (Strep-Tactin Sepharose)

With B1 the Kd [1] was under 1000 nM and the Kd [2] was under 1000 nM.

B2: binds [3].
